Data set [1] addresses T1, BMP-2 (Homo sapiens, UniProt P12643).
T1 sequence (P12643 283-396): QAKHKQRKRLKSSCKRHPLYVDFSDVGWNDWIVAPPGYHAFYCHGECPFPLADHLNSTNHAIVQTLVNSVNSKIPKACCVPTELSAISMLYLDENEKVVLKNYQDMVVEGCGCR
The note with it: cited from earlier work.

The target of data set [2] is T1, BMP-2. The conditions noted are these: Behnam, 2005; cited from earlier work.
Data set [3] in a line: Proteolysis of recombinant spp24 by MC3T3-E1 cell extracts (SDS-PAGE, anti-His6 Western blot). The format is in vitro ADME, mouse. The conditions noted are these: 37° C.; for time to essentially complete degradation of His6-spp24: presence of 4 mM calcium, MC3T3-E1 cell extracts. Here is the method:
MC3T3-E1 mouse preosteoblastic cells were cultured to confluence, harvested by trypsinization, pelleted by centrifugation, and suspended in digestion buffer (100 mM HEPES-HCl, pH 7.5, 12.5 mM KCl, 6.25 mM (3-mercaptoethanol, and 0.2% Triton X-100) plus or minus 4 mM CaCl2 at a protein concentration of 2.4 mg/ml. Recombinant spp24 (residues 23 to 204) was exhaustively dialyzed vs. water, lyophilized, and resuspended at 1 mg/ml in digestion buffer (plus or minus 4 mM CaCl2). Equal volumes of cell extract and spp24 were combined, and incubated at 37° C. for 0 to 24 hours. At the intervals indicated, 4 μl aliquots equivalent to 2 μg spp24 were removed, subjected to SDS-PAGE, and Western blotted using antibody directed against the His6 tag as outlined in detail above.
(In western blotting, separated proteins are transferred to a membrane and probed.)

Data set [4] can be described thus: Stability of IMAC-purified His6-spp24 on frozen storage (2D SDS-PAGE). The data set is classed as physicochemical. The conditions noted are these: stored frozen (−20° C., 3 months) in 8 M urea in the presence of protease inhibitors. The procedure:
The proteins in representative fractions containing His6-spp24 and its degradation products were separated by 2D SDS-PAGE by the method of O'Farrell (O'Farrell P. H., J. Biol. Chem., 250, 4007-4021 (1975)) (Nancy Kendrick, Ph.D., Kendrick Laboratories, Madison, Wis.) (Behnam, 2005, Behnam, 2006; Behnam, 2002; and Behnam and Murray, 2005). These fractions had been stored at −20° C. for 3 months in urea buffer plus protease inhibitors, resulting in the slow accumulation of degradation products similar to those previously reported (Urist, 1987) that are not abundant in freshly-prepared fractions. The gel was stained with Coomassie Brilliant Blue, and the three major spots of the appropriate molecular weight (<24 kDa) were selected, excised, eluted, reduced in 5% β-mercaptoethanol, alkylated, trypsin digested, and subjected to peptide mass fingerprint analysis by MALDI/ToF MS (Mary Ann Gawinowicz, Ph.D., Protein Chemistry Core Facility, Howard Hughes Medical Institute, Columbia University, New York, N.Y.) to verify their identities and structures (Behnam, 2005, Behnam, 2006, Behnam, 2002; and Behnam and Murray, 2005). Methionines were not oxidized. Peptides with a mass [M+H^+]>1000 Da were analyzed. The peptide fingerprint was compared to those in the SWISS-PRO and NCBI databanks (Behnam, 2005, Behnam, 2006; Behnam, 2002; and Behnam and Murray, 2005). […]

Data set [5] relates to A549 human non-small cell lung cancer cells. The data set can be described thus: A549 cell proliferation assay (Quick Cell Proliferation Assay). The data set is classed as cell-based. The note with it: 48 h. Here is the method:
The human non-small cell lung cancer (NSCLC) cell line A549 was used in this study (ATCC, Manassas, Va., USA). A549 cells were maintained in DMEM with 10% FBS and antibiotics (Fisher scientific, Pittsburgh, Pa.) in a humidified incubator with 5% CO2 at 37° C. Cells were not used beyond 10 passages. Cells were plated in serum free medium at a density of 10,000 cells/well and allowed to attach for 24 h. […] Recombinant spp24 was prepared as described previously (Murray E J B, et al., Connect Tiss Res 2007; 48:1-8) and added in serum-free media to final concentrations of 10, 25, 50, 75 μg/ml. Cells were incubated for 48 h before cell proliferation was assessed using Quick Cell Proliferation Assay (BioVision, Mountain View, Calif., USA) according to manufacturer's recommendations. Results were reported as a percentage compared with untreated cells.

The subject of data set [6] is A549 cells. The data set can be described thus: Subcutaneous implantation of A549 cells and direct measurement of tumor size. The data set is classed as in vivo, SCID mice. The conditions noted are these: 8 weeks after co-injection with A549 cells; rhBMP-2 10 μg, spp24 1000 μg; cells alone 127.4±117.5; mean±SE per method. The source says:
(§1) Forty, eight-week-old male SCID mice (weight 23.5 to 29.1 g, mean 27.1 g) were housed under pathogen-free conditions in accordance with the protocol approved by the Chancellor's Animal Research Committee (ARC) at the University of California, Los Angeles. There were four experimental groups in this study, and each group underwent implantation of cells in both a subcutaneous model and an intra-tibial injection. Group I animals received A549 cells alone as a control group. […] Group III received an A549 cells+spp24 (1000 μg). […] There were 10 animals in each group.

Data set [7] relates to A549 cells. Description: Intratibial implantation of A549 cells and radiographic analysis. The format is in vivo, SCID mice. The conditions noted are these: 8 weeks.
Text: as §1

The test system of data set [8] is A549 cells. The data set can be described thus: Histologic and histomorphometric analysis of A549 tumors (subcutaneous and tibiae). The data set is classed as in vivo, SCID mice.
Text: as §1
Animals were killed at 8 weeks (or earlier if required by an excessive tumor size) and both the soft tissue tumor and the hind limb were harvested for histological analysis. Soft tissue tumors were fixed in 10% buffered formalin. The tibias were fixed in 10% buffered formalin followed by decalcification in a solution of 10% EDTA for 2 weeks at room temperature with gentle stirring. Longitudinal sections of the proximal tibia were prepared and stained with H&E. For histologic and histomorphometric analyses, all microscopic slides were scanned with a ScanScope GL (Aperio Technologies, Inc., Vista, Calif.) equipped with a 20× objective. The following parameters were considered in the qualitative analysis: amount of tumor cells between cortices from the proximal tibia; anterior and posterior cortical destruction and remodeling; new bone formation within the medullary canal; and anterior/posterior extension of bone formation outside the medullary canal. These histologic findings were graded with the following scale: 0 (none), 1 (mild), 2 (moderate), 3 (intense). Bone volume and tumor volume, expressed as a percentage of total tissue volume (% BV/TV and % TuV/TV, respectively) were quantified in whole-slide images using Spectrum software (Aperio Technologies, Inc. Vista, Calif.).

The test system of another data set is A549. The conditions noted are these: Feeley, 2006; cited from earlier work.
The mark [9] stands for this setting: tibiae, grade 0 (none) to 3 (intense), mean.

“BBP: synthetic cyclic 19 amino acid peptide of the TRH1 domain of bovine spp24, CRSTVRMSAEQVQNVWVRC (SEQ ID NO: 8) [reference compound]”: the “effect on BMP-2-induced ectopic bone formation in vivo” value with BMP-2 [1] (Behnam, 2005) was “enhances the rate and magnitude of BMP-2-induced ectopic bone formation in vivo”. The “binding of BMP-2” value in the data set with BMP-2 [2] is “specifically binds BMP-2”.

B1: spp24: recombinant His6-tagged bovine secreted phosphoprotein-24 kDa, residues 24 to 203 (SEQ ID NO:1), expressed in E. coli (protein)
chain: MHHHHHHFPVYDYDPASLKEALSASVAKVNSQSLSPYLFRAFRSSVKRVNALDEDSLTMDLEFRIQETTCRRESEADPATCDFQRGYHVPVAVCRSTVRMSAEQVQNVWVRCHWSSSSGSSSSEEMFFGDILGSSTSRNSYLLGLTPDRSRGEPLYEPSREMRRNFPLGNRRYSNPWPRARVNPGFE
modifications: N-terminal Met-His6 tag; Synthetic spp24
Turning to B1, in data set [3] (absence of added calcium, 0 to 24 hours), the “degradation of His6-spp24 by MC3T3-E1 cell extracts” value was “essentially no degradation was observed until 24 hr”. Further, the “time to essentially complete degradation of His6-spp24” value in [3] is at most 2 h. In addition, the “time to essentially complete degradation of His6-spp24” value in data set [3] (listed as His6-spp24) is given as “about 2 hours”. Further, the “susceptibility to proteolysis on storage” value in data set [4] is “highly susceptible to proteolysis”. In data set [5] (agent alone, serum-free media, rhBMP-2 0-500 ng/ml, spp24 10-75 μg/ml), the “effect on A549 cell proliferation” value is listed as “slight dose-dependent inhibition of proliferation”. The “effect of spp24 on BMP-stimulated A549 proliferation” value in [5] (spp24 added to the BMP treatment) was “attenuation of the BMP affect at all doses”. This molecule also showed a subcutaneous tumor volume in the data set with A549 cells [6] of 12.6±21.6 mm3. Also, the “animals with minimal new bone formation” value in the data set with A549 cells [7] is “three of ten”. The average radiographic score in the data set on A549 cells [7] (score 0 normal to 3 obliteration of two cortices, cells alone 2.1) was found to be 0.5±0.6. Further, the “% TuV/TV (tumor volume/total volume)” value with A549 cells [8] (longitudinal section of the proximal tibia at midline, mean) is “insufficient”. In addition, the “tumor cells in histological specimens” value in the data set with A549 cells [8] (subcutaneous and intratibial sites, 8 weeks) was “only a few scattered tumor cells”. Further, in the data set with A549 cells [8] (tibia section, mean), the “% BV/TV (bone volume/total volume)” value is “insufficient”. In addition, in the data set on A549 cells [8] (setting [9]), the “Anterior cortex destruction (2)” value came out at 0, the “Extension of bone formation outside the medullary canal (5)” value was found to be 0, the “New bone formation within the medullary canal (4)” value is 0 and the “Posterior cortex destruction (3)” value worked out at 0. The “Amount of tumor cells between cortices (1)” value in the data set with A549 cells [8] (tibiae, grade 0 (none), 1 (mild), 2 (moderate), 3 (intense), mean) amounted to 0. In addition, the “effect on BMP-2 induced bone formation” value in the data set with BMP-2 [1] (ectopic bone forming assay (Sintuu, 2008)) was “strongly inhibits BMP-2 induced bone formation”.

B2: noggin: an inhibitor of BMPs (protein, UniProt Q13253 28-232, looked up)
Noggin: QHYLHIRPAPSDNLPLVDLIEHPDPIFDPKEKDLNETLLRSLLGGHYDPGFMATSPPEDRPGGGGGAAGGAEDLAELDQLLRQRPSGAMPSEIKGLEFSEGLAQGKKQRLSKKLRRKLQMWLWSQTFCPVLYAWNDLGSRFWPRYVKVGSCFSKRSCSVPEGMVCKPSKSVHLTVLRWRCQRRGGQRCGWIPIQYPIISECKCSC
As for B2, the “effect on tumor growth” value with A549 is given as “reduce tumor growth”.

(Values after US8962569B2, “Compositions comprising spp24 peptide fragments” (The Regeants of the University of California, priority 2010, dated 2015).)
